± gives the standard deviation of the averaged measurements.
Assay: total protein half-life in vivo (active degradation + dilution); higher = more stable protein
[1] = E. coli NCM3722 delta-clpP delta-lon delta-hslV, growth: N-lim chemostat, doubling time 6 h
[2] = E. coli NCM3722 delta-clpP, growth: N-lim chemostat, doubling time 6 h
[3] = E. coli NCM3722 delta-hslV, growth: N-lim chemostat, doubling time 6 h
[4] = E. coli NCM3722 delta-lon, growth: N-lim chemostat, doubling time 6 h
[5] = E. coli NCM3722 delta-smpB, growth: N-lim chemostat, doubling time 6 h
[6] = wild type E. coli NCM3722, growth: C-lim chemostat, doubling time 3 h
[7] = wild type E. coli NCM3722, growth: N-lim chemostat, doubling time 6 h
[8] = wild type E. coli NCM3722, growth: N-lim chemostat, doubling time 12 h
[9] = wild type E. coli NCM3722, growth: P-lim chemostat, doubling time 6 h
[10] = wild type E. coli NCM3722, growth: P-lim chemostat, doubling time 12 h
[11] = wild type E. coli NCM3722, growth: C-lim chemostat, doubling time 6 h
[12] = wild type E. coli NCM3722, growth: C-lim chemostat, doubling time 12 h

Sequence	total protein half-life in vivo [1] [h]	total protein half-life in vivo [2] [h]	total protein half-life in vivo [3] [h]	total protein half-life in vivo [4] [h]	total protein half-life in vivo [5] [h]	total protein half-life in vivo [6] [h]	total protein half-life in vivo [7] [h]	total protein half-life in vivo [8] [h]	total protein half-life in vivo [9] [h]	total protein half-life in vivo [10] [h]	total protein half-life in vivo [11] [h]	total protein half-life in vivo [12] [h]
MTDKTIAFSLLDLAPIPEGSSAREAFSHSLDLARLAEKRGYHRYWLAEHHNMTGIASAATSVLIGYLAANTTTLHLGSGGVMLPNHSPLVIAEQFGTLNTLYPGRIDLGLGRAPGSDQRTMMALRRHMSGDIDNFPRDVAELVDWFDARDPNPHVRPVPGYGEKIPVWLLGSSLYSAQLAAQLGLPFAFASHFAPDMLFQALHLYRSNFKPSARLEKPYAMVCINIIAADSNRDAEFLFTSMQQAFVKLRRGETGQLPPPIQNMDQFWSPSEQYGVQQALSMSLVGDKAKVRHGLQSILRETDADEIMVNGQIFDHQARLHSFELAMDVKEELLG [P0ADV5]	4.46 ± 0.36	4.24 ± 0.94	5.06 ± 1.8	3.94 ± 0.19	3.55 ± 0.21	3.07 ± 0.28	4.47 ± 1.3	5.76 ± 1.3	6.06 ± 0.55	11.1 ± 0.18	–	–
MTTLSCKVTSVEAITDTVYRVRIVPDAAFSFRAGQYLMVVMDERDKRPFSMASTPDEKGFIELHIGASEINLYAKAVMDRILKDHQIVVDIPHGEAWLRDDEERPMILIAGGTGFSYARSILLTALARNPNRDITIYWGGREEQHLYDLCELEALSLKHPGLQVVPVVEQPEAGWRGRTGTVLTAVLQDHGTLAEHDIYIAGRFEMAKIARDLFCSERNAREDRLFGDAFAFI [P0AEN1]	5.7 ± 0.93	4.72 ± 0.087	4.19 ± 0.12	4.62 ± 0.48	4.21 ± 0.8	2.74 ± 0.19	4.2 ± 0.26	7.18 ± 0.22	4.62 ± 1	9.49 ± 0.3	5.78 ± 0.43	8.71 ± 1.9
MIEKLRNIAIIAHVDHGKTTLVDKLLQQSGTFDSRAETQERVMDSNDLEKERGITILAKNTAIKWNDYRINIVDTPGHADFGGEVERVMSMVDSVLLVVDAFDGPMPQTRFVTKKAFAYGLKPIVVINKVDRPGARPDWVVDQVFDLFVNLDATDEQLDFPIVYASALNGIAGLDHEDMAEDMTPLYQAIVDHVPAPDVDLDGPFQMQISQLDYNSYVGVIGIGRIKRGKVKPNQQVTIIDSEGKTRNAKVGKVLGHLGLERIETDLAEAGDIVAITGLGELNISDTVCDTQNVEALPALSVDEPTVSMFFCVNTSPFCGKEGKFVTSRQILDRLNKELVHNVALRVEETEDADAFRVSGRGELHLSVLIENMRREGFELAVSRPKVIFREIDGRKQEPYENVTLDVEEQHQGSVMQALGERKGDLKNMNPDGKGRVRLDYVIPSRGLIGFRSEFMTMTSGTGLLYSTFSHYDDVRPGEVGQRQNGVLISNGQGKAVAFALFGLQDRGKLFLGHGAEVYEGQIIGIHSRSNDLTVNCLTGKKLTNMRASGTDEAVVLVPPIRMTLEQALEFIDDDELVEVTPTSIRIRKRHLTENDRRRANRAPKDD	5.32 ± 0.47	4.79 ± 0.39	4.54 ± 0.41	5.61 ± 0.38	4.62 ± 0.21	2.899 ± 0.022	4.387 ± 0.029	6.89 ± 0.16	5.58 ± 0.15	10.9 ± 0.83	5.8018 ± 0.005	9.75 ± 0.82
MKPARVPQTVVAPDCWGDLPWGKLYRKALERQLNPWFTKMYGFHLLKIGNLSAEINCEACAVSHQVNVSAQGMPVQVQADPLHLPFADKSVDVCLLAHTLPWCTDPHRLLREADRVLIDDGWLVISGFNPISFMGLRKLVPVLRKTSPYNSRMFTLMRQLDWLSLLNFEVLHASRFHVLPWNKHGGKLLNAHIPALGCLQLIVARKRTIPLTLNPMKQSKNKPRIRQAVGATRQCRKPQA	5.49 ± 0.13	–	5.49 ± 0.6	5.76 ± 1	7.25 ± 1	1.91 ± 0.15	6.41	9.9 ± 3.1	5.31 ± 1.1	10.6 ± 2.4	4.59 ± 1.2	11.5
MFTATEAVPVAKVVAGNKRYPGVVALDNVNFTLNKGEVRALLGKNGAGKSTLIRMLTGSERPDSGDIWIGETRLEGDEATLTRRAAELGVRAVYQELSLVEGLTVAENLCLGQWPRRNGMIDYLQMAQDAQRCLQALGVDVSPEQLVSTLSPAQKQLVEIARVMKGEPRVVILDEPTSSLASAEVELVISAVKKMSALGVAVIYVSHRMEEIRRIASCATVMRDGQVAGDVMLENTSTHHIVSLMLGRDHVDIAPVAPQEIVDQAVLEVRALRHKPKLEDISFTLRRGEVLGIAGLLGAGRSELLKAIVGLEEYEQGEIVINGEKITRPDYGDMLKRGIGYTPENRKEAGIIPWLGVDENTVLTNRQKISANGVLQWSTIRRLTEEVMQRMTVKAASSETPIGTLSGGNQQKVVIGRWVYAASQILLLDEPTRGVDIEAKQQIYRIVRELAAEGKSVVFISSEVEELPLVCDRILLLQHGTFSQEFHAPVNVDELMSAILSVH	–	–	–	–	–	–	–	–	4.92	–	–	7.2 ± 4.9
MSQVTENKVISAPVPMTPLQEFWHYFKRNKGAVVGLVYVVIVLFIAIFANWIAPYNPAEQFRDALLAPPAWQEGGSMAHLLGTDDVGRDVLSRLMYGARLSLLVGCLVVVLSLIMGVILGLIAGYFGGLVDNIIMRVVDIMLALPSLLLALVLVAIFGPSIGNAALALTFVALPHYVRLTRAAVLVEVNRDYVTASRVAGAGAMRQMFINIFPNCLAPLIVQASLGFSNAILDMAALGFLGMGAQPPTPEWGTMLSDVLQFAQSAWWVVTFPGLAILLTVLAFNLMGDGLRDALDPKLKQ [P0AEG1]	6.11	5.53 ± 0.37	6.45	6.14 ± 1	5.93 ± 0.46	3.47	6.39 ± 0.51	10.9 ± 2	6.16 ± 0.14	10.8 ± 2.3	> 8	12.6 ± 2.1
MFEPMELTNDAVIKVIGVGGGGGNAVEHMVRERIEGVEFFAVNTDAQALRKTAVGQTIQIGSGITKGLGAGANPEVGRNAADEDRDALRAALEGADMVFIAAGMGGGTGTGAAPVVAEVAKDLGILTVAVVTKPFNFEGKKRMAFAEQGITELSKHVDSLITIPNDKLLKVLGRGISLLDAFGAANDVLKGAVQGIAELITRPGLMNVDFADVRTVMSEMGYAMMGSGVASGEDRAEEAAEMAISSPLLEDIDLSGARGVLVNITAGFDLRLDEFETVGNTIRAFASDNATVVIGTSLDPDMNDELRVTVVATGIGMDKRPEITLVTNKQVQQPVMDRYQQHGMAPLTQEQKPVAKVVNDNAPQTAKEPDYLDIPAFLRKQAD [P0A9A6]	5.406 ± 0.043	5.13 ± 0.67	1.86 ± 0.3	1.95 ± 0.19	1.95 ± 0.0047	1.25 ± 0.079	1.79 ± 0.093	2.79 ± 0.26	2.53 ± 0.23	4.37 ± 0.54	1.97 ± 0.13	2.7 ± 0.23
MVTHRQRYREKVSQMVSWGHWFALFNILLSLVIGSRYLFIADWPTTLAGRIYSYVSIIGHFSFLVFATYLLILFPLTFIVGSQRLMRFLSVILATAGMTLLLIDSEVFTRFHLHLNPIVWQLVINPDENEMARDWQLMFISVPVILLLELVFATWSWQKLRSLTRRRRFARPLAAFLFIAFIASHVVYIWADANFYRPITMQRANLPLSYPMTARRFLEKHGLLDAQEYQRRLIEQGNPDAVSVQYPLSELRYRDMGTGQNVLLITVDGLNYSRFEKQMPALAGFAEQNISFTRHMSSGNTTDNGIFGLFYGISPSYMDGILSTRTPAALITALNQQGYQLGLFSSDGFTSPLYRQALLSDFSMPSVRTQSDEQTATQWINWLGRYAQEDNRWFSWVSFNGTNIDDSNQQAFARKYSRAAGNVDDQINRVLNALRDSGKLDNTVVIITAGRGIPLSEEEETFDWSHGHLQVPLVIHWPGTPAQRINALTDHTDLMTTLMQRLLHVSTPASEYSQGQDLFNPQRRHYWVTAADNDTLAITTPKKTLVLNNNGKYRTYNLRGERVKDEKPQLSLLLQVLTDEKRFIAN [P0AD27]	6.51 ± 0.23	–	–	5.92 ± 0.086	6.0496 ± 0.0024	3.37 ± 0.44	6.18 ± 0.89	12.9 ± 1.1	6.34 ± 0.1	11.8 ± 0.67	5.62 ± 0.63	12.8 ± 0.27
MTDLSHSREKDKINPVVFYTSAGLILLFSLTTILFRDFSALWIGRTLDWVSKTFGWYYLLAATLYIVFVVCIACSRFGSVKLGPEQSKPEFSLLSWAAMLFAAGIGIDLMFFSVAEPVTQYMQPPEGAGQTIEAARQAMVWTLFHYGLTGWSMYALMGMALGYFSYRYNLPLTIRSALYPIFGKRINGPIGHSVDIAAVIGTIFGIATTLGIGVVQLNYGLSVLFDIPDSMAAKAALIALSVIIATISVTSGVDKGIRVLSELNVALALGLILFVLFMGDTSFLLNALVLNVGDYVNRFMGMTLNSFAFDRPVEWMNNWTLFFWAWWVAWSPFVGLFLARISRGRTIRQFVLGTLIIPFTFTLLWLSVFGNSALYEIIHGGAAFAEEAMVHPERGFYSLLAQYPAFTFSASVATITGLLFYVTSADSGALVLGNFTSQLKDINSDAPGWLRVFWSVAIGLLTLGMLMTNGISALQNTTVIMGLPFSFVIFFVMAGLYKSLKVEDYRRESANRDTAPRPLGLQDRLSWKKRLSRLMNYPGTRYTKQMMETVCYPAMEEVAQELRLRGAYVELKSLPPEEGQQLGHLDLLVHMGEEQNFVYQIWPQQYSVPGFTYRARSGKSTYYRLETFLLEGSQGNDLMDYSKEQVITDILDQYERHLNFIHLHREAPGHSVMFPDA [P0ABC9]	6.17 ± 0.24	7.418 ± 0.034	5.75 ± 1.3	> 8	5.11 ± 0.14	–	6.17	9.97	6.22 ± 1.3	13.1 ± 1.3	5.56	11.6 ± 2
MSANAETQTPQQPVKKSGKRKRLLLLLTLLFIIIAVAIGIYWFLVLRHFEETDDAYVAGNQIQIMSQVSGSVTKVWADNTDFVKEGDVLVTLDPTDARQAFEKAKTALASSVRQTHQLMINSKQLQANIEVQKIALAKAQSDYNRRVPLGNANLIGREELQHARDAVTSAQAQLDVAIQQYNANQAMILGTKLEDQPAVQQAATEVRNAWLALERTRIISPMTGYVSRRAVQPGAQISPTTPLMAVVPATNMWVDANFKETQIANMRIGQPVTITTDIYGDDVKYTGKVVGLDMGTGSAFSLLPAQNATGNWIKVVQRLPVRIELDQKQLEQYPLRIGLSTLVSVNTTNRDGQVLANKVRSTPVAVSTAREISLAPVNKLIDDIVKANAG	6.17 ± 0.42	6.38 ± 0.53	6.57 ± 0.12	6.37 ± 0.58	6.1 ± 0.26	2.99 ± 0.1	6.17 ± 0.1	12 ± 0.35	6.47 ± 0.29	13.6 ± 2.7	6.37 ± 0.2	13.5 ± 1.8
MTTNTHTLQIEEILELLPHRFPFLLVDRVLDFEEGRFLRAVKNVSVNEPFFQGHFPGKPIFPGVLILEAMAQATGILAFKSVGKLEPGELYYFAGIDEARFKRPVVPGDQMIMEVTFEKTRRGLTRFKGVALVDGKVVCEATMMCARSREA [P0A6Q6]	5.67 ± 0.36	–	–	5.38 ± 0.24	5.504 ± 0.036	2.86 ± 0.45	6.23 ± 0.6	11.9 ± 0.43	5.75 ± 0.8	13.4 ± 0.14	6.1 ± 0.81	11.2 ± 0.12
MKHELSSMKAFVILAESSSFNNAAKLLNITQPALTRRIKKMEEDLHVQLFERTTRKVTLTKAGKRLLPEARELIKKFDETLFNIRDMNAYHRGMVTLACIPTAVFYFLPLAIGKFNELYPNIKVRILEQGTNNCMESVLCNESDFGINMNNVTNSSIDFTPLVNEPFVLACRRDHPLAKKQLVEWQELVGYKMIGVRSSSGNRLLIEQQLADKPWKLDWFYEVRHLSTSLGLVEAGLGISALPGLAMPHAPYSSIIGIPLVEPVIRRTLGIIRRKDAVLSPAAERFFALLINLWTDDKDNLWTNIVERQRHALQEIG	3.61	–	–	–	–	–	–	–	–	–	–	–
MKKLINDVQDVLDEQLAGLAKAHPSLTLHQDPVYVTRADAPVAGKVALLSGGGSGHEPMHCGYIGQGMLSGACPGEIFTSPTPDKIFECAMQVDGGEGVLLIIKNYTGDILNFETATELLHDSGVKVTTVVIDDDVAVKDSLYTAGRRGVANTVLIEKLVGAAAERGDSLDACAELGRKLNNQGHSIGIALGACTVPAAGKPSFTLADNEMEFGVGIHGEPGIDRRPFSSLDQTVDEMFDTLLVNGSYHRTLRFWDYQQGSWQEEQQTKQPLQSGDRVIALVNNLGATPLSELYGVYNRLTTRCQQAGLTIERNLIGAYCTSLDMTGFSITLLKVDDETLALWDAPVHTPALNWGK	5.88 ± 0.29	5.22 ± 0.51	5.21 ± 0.23	–	5.33 ± 0.57	2.78 ± 0.28	5.72 ± 0.15	10.3 ± 1.2	5.75 ± 0.93	12.5 ± 0.43	5.7 ± 0.2	10.4 ± 0.73

Source: the supplement of paper PMC11246515
